Laboratory results published in a protein production outcome set (Wang et al. 2014).

Experiment: label from the status in PepcDB records

Sequence | protein production
MNISSAQFIPGVHTVEEIEAEIHKNLHISKSCSYQKVPNSHKEFTKFCYEVYNEIKISDKEFKEKRAALDTLRLCLKRISPDAELVAFGSLESGLALKNSDMDLCVLMDSRVQSDTIALQFYEELIAEGFEGKFLQRARIPIIKLTSDTKNGFGASFQCDIGFNNRLAIHNTLLLSSYTKLDARLKPMVLLVKHWAKRKQINSPYFGTLSSYGYVLMVLYYLIHVIKPPVFPNLLLSPLKQEKIVDGFDVGFDDKLEDIPPSQNYSSLGSLLHGFFRFYAYKFEPREKVVTFRRPDGYLTKQEKGWTSATEHTGSADQIIKDRYILAIEDPFEISHNVGRTVSSSGLYRIRGEFMAASRLLNSRSYPIPYDSLFEEAPIPPRRQKKTDEQSNKKLLNETDGDNS | not failed
MTSGATRYRLSCSLRGHELDVRGLVCCAYPPGAFVSVSRDRTTRLWAPDSPNRSFTEMHCMSGHSNFVSCVCIIPSSDIYPHGLIATGGNDHNICIFSLDSPMPLYILKGHKNTVCSLSSGKFGTLLSGSWDTTAKVWLNDKCMMTLQGHTAAVWAVKILPEQGLMLTGSAGKTVKLWKAGRCERTFSGHEDCVRGLAILSETEFLSCANDASIRRWQITGECLEVYYGHTNYIYSISVFPNCRDFVTTAEDRSLRIWKHGECAQTIRLPAQSIWCCCVLDNGDIVVGASDGIIRVFTESEDRTASAEEIKAFEKELSHATIDSKTGDLGDINAEQLPGREHLNEPGTREGQTRLIRDGEKVEAYQWSVSEGRWIKIGDVVGSSGANQQTSGKVLYEGKEFDYVFSIDVNEGGPSYKLPYNTSDDPWLTAYNFLQKNDLNPMFLDQVAKFIIDNTKGQMLGLGNPSFSDPFTGGGRYVPGSSGSSNTLPTADPFTGAGRYVPGSASMGTTMAGVDPFTGNSAYRSAASKTMNIYFPKKEAVTFDQANPTQILGKLKELNGTAPEEKKLTEDDLILLEKILSLICNSSSEKPTVQQLQILWKAINCPEDIVFPALDILRLSIKHPSVNENFCNEKEGAQFSSHLINLLNPKGKPANQLLALRTFCNCFVGQAGQKLMMSQRESLMSHAIELKSGSNKNIHIALATLALNYSVCFHKDHNIEGKAQCLSLISTILEVVQDLEATFRLLVALGTLISDDSNAVQLAKSLGVDSQIKKYSSVSEPAKVSECCRFILNLL | failed
MERAMEQLNRLTRSLRRARTVELPEDNETAVYTLMPMVMADQHRSVSELLSNSKFDVNYAFGRVKRSLLHIAANCGSVECLVLLLKKGANPNYQDISGCTPLHLAARNGQKKCMSKLLEYSADVNICNNEGLTAIHWLAVNGRTELLHDLVQHVTDVDVEDAMGQTALHVACQNGHKTTVQCLLDSGADINRPNVAGATPLYFACSHGQRDTAQILLLRGAKYLPDKNGVTPLDLCVQGGYGQTCEVLIQYHPRLFQTIVQMTQNEDLRENMLRQVLQHLSQQSESQYLKILTGLAEVATTNGHKLLSLSSSYEAQMKSLLRIVRIFCHVFRIGPSSPSNGMDMGYNGNKTPRSQVFKPLELLWHSLDEWLVLIATELMKNKEDSADITSILLKQKGQDQEASCISAFEPPGPGSYERLSTGPGESKPDVLAGKQEASADCQDVISVTANRLSAVIQAFYMCCSCQMPPGMTSPRFIEFVCKHDEVLKCFVNRNPKIIFDHFHFLLECPELMSRFMHIIKAQPFKDRCEWFYEHLHSGQPDSDMVHRPVSENDILLVHRDSIFRSSCEIVSKANCAKLKQGIAVRFHGEEGMGQGVVREWFDILSNEIVNPDYALFTQSYCYVFISIGTTFQPNSNSYVNPDHLNYFRFAGQILGLALNHRQLVNIYFTRSFYKHILGIPVNYQDVASIDPEYAKNLQWILDNDISDLGLELTFSVETDVFGAMEEVPLKPGGGSILVTQNNKAEYVQLVTELRMTRAIQPQINAFLQGFHMFIPPSLIQLFDEYELELLLSGMPEIDVNDWIKNTEYTSGYEREDPVIQWFWEVVEDMTQEERVLLLQFVTGSSRVPHGGFANIMGGSGLQNFTIAAVPYTPNLLPTSSTCINMLKLPEYPSKEILKDRLLVALHCGSYGYTMA | failed
MKHMKTFVIIGLSNLGIHLLEDLSRLDCQIIIIDTSKELIEEYDVISTESFVVEQFTKNALKRIIPVDTDAVVIDFDDDLGKSALVTHYCNLLGLKEICVKTENRDDAEILKTLGATKIIFPSKDAARRLTPLLVSPNLSTYNIIGYDIIVAETVIPKEYVGKTLFEADLRRECGITVIAVRNLSNSRYEFVDGDYFFLKDDKIVICGKPDSIENFTNNKDLIKDLISGSKEDENLNKDAEKKSRFLGIFNFMKIFQKDRKDN | failed
SQEQAQTTDWRATLKTIRNGVHKIDTYLNAALDLLGGEDGLCQYKCSDGSKPFPRYGYKPSPPNGCGSPLFGVHLNIGIPSLTKCCNQHDRCYETCGKSKNDCDEEFQYCLSKICRDVQKTLGLTQHVQACETTVELLFDSVIHLGCKPYLDSQRAACRCHYEEKTDL | not failed
MRNQFDLELHELEQSFLGLGQLVLETASKALLALASKDKEMAELIINKDHAINQGQSAIELTCARLLALQQPQVSDLRFVISIMSSCSDLERMGDHMAGIAKAVLQLKENQLAPDEEQLHQMGKLSLSMLADLLVAFPLHQASKAISIAQKDEQIDQYYYALSKEIIGLMKDQETSIPNGTQYLYIIGHLERFADYIANICERLVYLETGELVDLN | not failed
MKQTELLKGILEGLVLAIIQRKETYGYEITKILNDQGFTEIVEGTVYTILLRLEKNQWVIAEKKPSEKGPMRKFYRLTSSGEAELADFWQRWTLLSKQVNKMKKNGGIEHVKF | not failed
MFADTCGFMNRSPEHIFGSPEIDYSDVSTGYLEDALIESGERSKRRRLLFEDPSKSFNDDDSQNDWGLHESYSCLNSQFVTPHVNTGERISGVSYCQETISNVYESPDTSVSYDKIYVREKSPTEPSSSNCGNKNKRLITKLVYPFGLVKPGGRENDVTLNDINERILMAPSRPIRHPVGDFASRPCVSGRGPGLSGKAVVALTKIQTQGRGTITIIRTKG | failed
VIGTWDCDTCLVQNKPEAIKCVACETPKPGTCVKRALTLT | not failed
MVKHIVLFKLRDDVPVEEKLVVMNSFKEAIEALPAKISVIRKIEVGLNMNPGETWNIALYSEFDNLDDVKFYATHPEHVAAGKILAETKESRACVDYEF | not failed
NSVNCDELGPLPPGWEVRSTVSGRIYFVDHNNRTTQFTDPRLHHIMNHQCQLKEPSQPLPLPS | failed
MCLCQLSRRKKRPDDSDTQSAPGAVQGTGADYSGAVTASAASTVTHPTVTRHVTASGARIYTIGIRAFEHLGVNVFLVVVGDPQQPSYTALIDAGSSFDFSQQGLLDGLKRVREEYGEAWSWETLSRLVITHPHPDHVGGLPFVRTLTAAPVAAHALAAAVIEEPGRRAEAFKLGADAMLARLGVPEGEYAARLRRRAGNLMSPSGVKVETALQDGDTLDGLFTVLHTPGHDGAQICLRLDEVLLSADHLLPHNSPPLMPGWMLPGSGLGPYLAALDHIETLEGVDLALGSHDEPMPDWRGRVDFLRRRYDDKLRGVLGAASEPQTIYALTCAVNPRLRAAQALLLLDQTAALVEELVVRGELHETREQAADGERWTYQRA | failed
MSLVVCQPQINESFYQKDDMGGLSFLQSMSDITSIAQTKEDKAYVHPMEKRSVSKLNEKSLEMCTESLGTETGSESGDELSLLAFEATTTPRAPPRQLKPQEDTNLPDKTPPMSRNNSFPPPIKFVEDSKYNRMVRWLGEDGRIVVQAIRVSSPPSCFVSERGEGRLRLILTSESSLLSHNHEEEEEEETEEGIDEETSENLEGKSGNKKFSRFSRRCKENGREPKPMLTWKQQQFWVAT | failed
MTRKSFPFFLLGLILTVGIDQAVKYWVMHNIPLGTETPLLPFLSLYHVRNSGIAFSFFSSFSHWGLIFLTLIILIFLLWLWKNTQYNKSLTRFGFTLIIGGAIGNLIDRICFYYVIDYILFYINDVFYFAVFNLADTFITLGVIAIIIEELLSWIKRKSTFSE | failed
MQINGKAPRNKDLEPHSFELWLNAAKTNLDKYEMALIITATLGLRRGEVMGLRNESIKISHDQINDADVAQISIDMQRNTNELNGGPLKTKSSYRTIWAFGKTVDHLKYAMITADNLRQRNNIQAEKHWLWLNNDGNPLHPTHLNRLMRRVSNRSGVEVYPHLLRHYFATQAIAANKPQIDVMHYLGHKNLQMTADYTRSTKAASLNVFNSIDKFLLEHHHHHH | not failed
MKRRLLCALLASTLAQPLTVRADLPDLGEISDASLSLSDEARIGRDALRAMREAGDVVDDPEVNAYLNDVGGRLAAAAAVPGVRFTYFCVADAGINAFAMPGGYVGINIGLMLASQSEGELAAVLGHETAHVAQRHIARMQAANSAASPLLLLGTIVAAALAAKAGSGDGAMGAVSAGMGLSISRQLAFSRDFEREADRVGMQYMSAAGFDVRNMAAFFQRLEQASRYSDNTAYAFLRTHPVTLERISEAQNRALDYPVRMRADSVDYLLVREKLRVLTLSPEEAVSHYSSALQRGLYLNEGANWYGLARAKLLQHDRAGASEALAKARAKLPDNPMLYGLEVEIARDGRDWAAAARAARNGLSAFPRSVSLQLAQLDVALDGGDRKAAQAQLRQLLDSRRDDPALYRREAKLYADKDPLRYHAALGNAFYYEQRYGAALEQYQLAGKAKGDDFYLRSMLEARLREVEKLAKEERKAARNLEHHHHHH | not failed
MFHKALITFIVLWFFLNGLGAYDFKHCQAFFKKASLQKGGVALKELPKGVYLYYSKTYPKHAKVIKSDPFVGLYLLQSAPSEYVYTLRDLDKDALIRPMASIGDKEALETRLLVGQRGYERYAQISQKTQKNGVISNICYQMLGLGVGGNGFIETKFIKRFLNQQEPYYGDIGVRLEEHHKRLVVVQFDPFFPKNPFLKNDEILAINHQKIHSLAEFEWVVSNLKYQSLAKVEIKRNHKVKEVTLKVNKRYGGFLLKDTFLERYGIALDERFIITKIGAHLPKGLDFLKLGDRILWVNYKSVASNPKALREALSAPKIELLVLRKGFEFYIKVR | failed
MIGAILAGGYGKRLKPITDSIPKALVEIKDNYTIMDRQLFDFSIMGIEAVYILSGYLGNKIEERYGSRYRDMNIYYLREEKPLGTLYSLRNLIDEVKDDDIVLRNGDTVTDVNFLNFLKKAQDQKYYITMYVTRMKSPFGIVETFGDQIVQFREKPELNHYINAGLYYIKSDAFPYFFEKYIDRDLETTVFPRMAREGLIGSYTEEAMWIGIDSEKDLERIRADYRNREDYPWGYLKVLYDDDRSRLLEYAIKAGSDTEIDCGDGCILRIQSGLGTFGDSSDEKFRNGDVRSISGKVRVNAFENTRLELIISKKLEHHHHHH | failed
NILKIRCAPVTWPIGMGKNFKGVYHILNDEIYLFEAGGERLPHEFDIIKGIDNPELEQRFPLEIQQLRDEIELVQAASNEFNLDEFLAGELTPVFFGSAINNFGIQEILNSLIDWAPAPKPRDATVRMVEPDEPKFSGFIFKIQANMDPKHRDRIAFLRVCSGKFERGMKMKHLRINREIAASSVVTFMSHDRELVEEAYAGDIIGIPNHGNIQIGDSFSEGEQLAFTGIPFFAPELFRSVRIKNPLKIKQLQKGLQQLGEEGAVQVFKPMSGADLILGAVGVLQFEVVTSRLANEYGVEAVFDSASIWSARWVSCDDKKKLAEFEKANAGNLAIDAGGNLAYLAPNRVNLGLTQERWPDIVFHETREHSVKL | failed
MSKIAIIVDSSSYIPKDQLKKHHIYVIDNPIIFGETIYHEFNWPVNADFYQQMATTPIQPTTSQPAPGDFEAAFQAAKDDGYKQALVITLSSGFSGTFLNTSAIASSHSDIDIHVWDSRIACLGAGNQALLAAYLAEKGIGIDEILSKLQILRSRTGVFFVVDSISHLQRTGRLSGGQALVAGLLNIKPILNINTNKQGKIDAVAKTRKMSGAWRYIEKHFAKIADNYQRAGWPMRVSILDADNPELADAWLKRAEKRWPEIIFERGIIGPLVGVHIGGKAVGLIWAEDYKRLED | failed
